# Positions count from the first letter of the chain named. Where two headings read alike, the source gives them in different places.
# T1: cynomolgus CD3 on T cells (cynomolgus monkey)
# T1 chain: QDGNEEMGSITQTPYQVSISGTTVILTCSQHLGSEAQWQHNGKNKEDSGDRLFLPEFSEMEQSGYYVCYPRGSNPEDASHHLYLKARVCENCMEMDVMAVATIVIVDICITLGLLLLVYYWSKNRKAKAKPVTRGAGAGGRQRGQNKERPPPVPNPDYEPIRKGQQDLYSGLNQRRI
# B1: H1H5782P (antibody, V domains shown)
# VH: EVQLVESGGGLVQPGRSLRLSCAASGFTFDDYAMHWVRQAPGKGLEWVSGISWNSGSKDYADSVKGRFTISRDNTRNSLFLQMNSLRTEDTALYYCAKDKSGYGSFYYGMDVWGQGTTVTVSS
# VL: not shown
# B2: H2M2705N (antibody, V domains shown)
# VH: QVQLVESGGGVVQPGRSLRLACVASGFTFRSYGMHWVRQAPGKGLQWVAMIYYDGKNKYYADSVRGRFTISRDNSKNTLYLQMNNLRVEDTAMYFCARGPGYNWLDPWGQGTLVTVSS
# VL: EIVMTQSPATLSVSPGERATLSCRASQRISSNLAWYQQKPGQAPRLLIYGASTRATGSPARFSGSGSGTDFTLTISSLQSEDVAVYYCQQHHNWPLTFGGGTKVEIK
# B3: H1H2690N (antibody, V domains shown)
# VH: EVQLVESGGGLVQPGRSLRLSCAASGFTFDDYTMHWVRQAPGKGLEWVSGISWNSGSIGYADSVKGRFTISRDNAKKSLYLQMNSLRAEDTALYYCAKDNSGYGHYYYGMDVWGQGTTVTVAS
# VL: B2 VL with R28S, I29V, S58I, D70E, V83F, Q90H, H91Y, H92I
# B4: H1xH7221G3 (antibody, V domains shown)
# VH: EVQLVESGGGLVQPGRSLRLSCAASGFTFDDYSMHWVRQAPGKGLEWVSGISWNSGSIGYADSVKGRFTISRDNAKNSLYLQMNSLRAEDTALYYCAKDGSGYGYFYYYGMDVWGQGTTVTVSS
# VL: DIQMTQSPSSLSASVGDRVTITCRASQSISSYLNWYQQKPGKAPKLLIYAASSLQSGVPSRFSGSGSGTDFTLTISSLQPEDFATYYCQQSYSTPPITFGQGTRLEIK
# B5: H1H7221P (antibody, V domains shown)
# VH: B4 VH with A23V, I58K, G59D, D99Y, Y105K, Y108H, M111L
# VL: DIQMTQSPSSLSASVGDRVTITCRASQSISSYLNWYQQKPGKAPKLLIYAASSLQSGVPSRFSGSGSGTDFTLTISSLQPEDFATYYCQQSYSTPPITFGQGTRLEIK
# B6: BSPSMA/CD3-400 CD3 arm (antibody, V domains shown)
# VH: B4 VH with S33A, Y105K
# VL: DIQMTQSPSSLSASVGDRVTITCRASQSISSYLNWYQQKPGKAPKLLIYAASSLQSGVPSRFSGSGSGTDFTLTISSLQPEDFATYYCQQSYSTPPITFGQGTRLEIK
# B7: H1xH7221G5 (antibody, V domains shown)
# VH: B4 VH with Y105K
# VL: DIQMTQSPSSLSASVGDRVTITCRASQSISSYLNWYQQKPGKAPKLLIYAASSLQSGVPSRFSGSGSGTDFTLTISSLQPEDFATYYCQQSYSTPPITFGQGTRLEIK
# B8: BSPSMA/CD3-200 CD3 arm (antibody, V domains shown)
# VH: B4 VH with S33A
# VL: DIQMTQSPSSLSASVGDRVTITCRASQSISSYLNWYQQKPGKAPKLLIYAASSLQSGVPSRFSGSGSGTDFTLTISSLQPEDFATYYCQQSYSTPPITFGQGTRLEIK
# B9: H1H7232P (antibody, V domains shown)
# VH: B4 VH with Q13H, S33T, G50D, I58R, K76E, G100K, Y105H, F106Y, G110A
# VL: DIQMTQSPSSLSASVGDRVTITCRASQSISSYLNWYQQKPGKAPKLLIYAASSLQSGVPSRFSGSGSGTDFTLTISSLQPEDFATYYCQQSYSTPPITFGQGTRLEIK
# B10: BSPSMA/CD3-300 CD3 arm (antibody, V domains shown)
# VH: B4 VH
# VL: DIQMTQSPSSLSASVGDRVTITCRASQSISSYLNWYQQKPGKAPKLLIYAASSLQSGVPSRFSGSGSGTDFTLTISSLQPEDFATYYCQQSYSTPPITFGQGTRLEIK
# B11: H1H5785B (antibody, V domains shown)
# VH: QVQLVESGGGVVQPGRSLRLSCAASGLTFSTYVMHWVRQAPGKGLAWVAVIANDGSNKYYADSVKGRFTISRDNSKNTLYLQMNSLRPEDTAVYFCAKEGGTSGSYYYYGMDVWGQGTTVTVSS
# VL: DIQMTQSPDSLAVSLGERATINCKSSQSLLFNSINKNYLAWYQQKPGQPPKLLLYWASTRESGIPDRFSGSGSGTDFTLTITSLQAEDVALYYCQQYYSIPWTFGQGTKVEIKR
# B12: H2M3548N (antibody, V domains shown)
# VH: EVQLVESGGGLVQPGRSLRLSCAASGFKFADYAMHWVRQAPGKGLEWVSEISWNSGSIGYVDSVKGRFTISRDNAKNSLYLQMNSLRAEDTALYYCVKDKSGYGHYYIGMDVWGQGTTVIVSS
# VL: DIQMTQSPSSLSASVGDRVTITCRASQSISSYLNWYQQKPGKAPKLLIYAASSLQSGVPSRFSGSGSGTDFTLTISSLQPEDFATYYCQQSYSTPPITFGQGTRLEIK
# B13: H1H5753B (antibody, V domains shown)
# VH: QVQLVESGGGLVQPGGSLRLSCAASYFTFSSFAMNWVRQAPGQGLEWVSAISGRVSAISGSGGITYYADSVKGRFIISRDNSKNTLYLQMSGLRAEDTAVYYCAKGPYLTTVTPFDYWGQGTLVTVSS
# VL: DIQLTQSPSSVSASVGDRVTITCRASQGISSWLAWYQQKPGKAPKLLIYAVSSLQNGVPSRFSGSGSGTDFTLTISSLQPEDFATYYCQQANSFPFTFGPGTKLEIKR
# B14: H1H5756B (antibody, V domains shown)
# VH: EVQLVESGGGVVQPGRSLRLSCTASGFPFSRYGMHWVRQAPGKGLEWVTFIWYDGSNKYYADSAKGRFTITRDNSKNTVYLQMDSLRADDTAVYYCVRDQAALYYFDSWGQGTLVTVSS
# VL: B13 VL with L4M, S31R, Y49S, V51A, N56S, S77G, Q90K
# B15: H1M11453N (antibody, V domains shown)
# VH: EFQVVESGGGLVKPGGSLRLSCVVSGFTFSNYNMNWVRQAPAKGLEWVSSISTGSSDIYYADSVKGRFTISRDNAKNSLYLQMNSLRVEDTAVYYCARDIIGTTRDWGQGTLVTVSS
# VL: DIQMTQSPSSLSASVGDSVTITCRASQSINNYLNWYQQKPGKAPKLLIYTASSLLSGVPSRFSGSGSGTDFTLTISGLHPEDFATYFCQQSFSTPPITFGQGTRLDIK
# B16: H2M11899N (antibody, V domains shown)
# VH: QVQLVESGGGVVQPGRSLRLSCAASGFTFSSYDIHWVRQAPGKGLEWVSVIWYDGSNKYYADSVKGRFTISRDNSKNTLYLQMNSLRAEDTAVYYCARTVAARNYDYYVMDVWGQGTTVTVSS
# VL: B15 VL
# B17: H2M2776N (antibody)
# chain 1: QVQLVESGGGVVQPGRSLRLSCAASGFTFRSFGMHWVRQAPGRGLEWVAMIYFDGKNKYYADSVRGRFTISRDNSKNTLYLEMSSLRAEDTAVYFCARGPGYNWLDPWGQGTLVTVSS
# chain 2: EIVMTQSPATLSVSPGERVILSCRASQSISRNLAWYQXKPGQAPRLLIYGATTRATGVPARFSGSGSGTEFTLTISSLQSEDFAVFYCQQYNNRPLTFGGGTEVEIK
# modifications: not fully specified; listing feature
# B18: H1H7250P (antibody, V domains shown)
# VH: QVQLVESGGGLVQPGRSLRLSCAASGFTFDDYTMHWVRQGPGKGLEWVSDIGWNSNTKGYADSVKGRFTISRDNAKNSLYLQMNSLRPEDTALYFCVKDKSGYGKFFIGLDVWGQGTMVTVSS
# VL: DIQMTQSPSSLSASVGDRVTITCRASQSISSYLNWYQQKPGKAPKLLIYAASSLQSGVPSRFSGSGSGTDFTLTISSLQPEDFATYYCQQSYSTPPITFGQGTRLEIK
# B19: H1H7241P (antibody, V domains shown)
# VH: B18 VH with Q1E, D30A, K58I, T69A, F95Y, F107Q, I108Y, M118T
# VL: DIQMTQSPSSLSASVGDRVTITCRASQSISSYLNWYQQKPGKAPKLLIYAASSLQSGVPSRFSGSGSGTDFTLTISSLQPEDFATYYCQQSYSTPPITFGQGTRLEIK
# B20: H1H7258P (antibody, V domains shown)
# VH: B18 VH with K58I, K76R, F95Y, F107Q, I108Y, M118T
# VL: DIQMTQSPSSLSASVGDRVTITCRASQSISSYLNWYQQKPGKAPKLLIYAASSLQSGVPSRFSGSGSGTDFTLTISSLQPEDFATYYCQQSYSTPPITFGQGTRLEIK
# B21: H2M3547N (antibody, V domains shown)
# VH: EAQLVESGGGLVQPGRSLRLSCTTSGFTFDDYTMHWVRQAPGKGLEWISDISWNGGTKGYADSVKGRFTISRDNAKNSLYLQMDSLRGEDTALYYCVKDKSGYGHFYFGLDVWGQGTTVTVSS
# VL: DIQMTQSPSSLTASVGDRVTFTCRASQSISRHLSWYQQKPGKAPKLLIYAASSLESGVPSRFSGSGSGTDFTLTISSLHPEDFATYYCQQSYSNPPITFGQGTRLEIK
# B22: H1H7194P (antibody, V domains shown)
# VH: EVQLVESGGGLVQPGRSLRLSCAASGFTFGDYTMHWVRQAPGKGLEWVSDISWNSGSKDYADSVKGRFTISRDNAKNSLYLQMNSLRTEDTAFYYCAKDSRGYGLYYHLGLDVWGQGTTVTVSS
# VL: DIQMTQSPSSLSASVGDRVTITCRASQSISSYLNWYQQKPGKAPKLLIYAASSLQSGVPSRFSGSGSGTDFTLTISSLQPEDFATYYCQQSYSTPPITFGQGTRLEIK
# B23: H1H5752P (antibody, V domains shown)
# VH: QVQLVESGGGVVQPGRSLRPSCAASGFSFRDYGMHWVRQAPGKGLEWMAHIWYNGKNKYYADSVKGRFTISRDNSKNTLYLQMNSLRPEDTAVYYCARDGVSARGTPFDYWGQGTLVTVSS
# VL: ETTLTQSPAFMSAAPGDKVSISCIASQYIDDDVNWYQQKPGETAIFIIQEASTLVPGISPRFSGSGYGTHFTLTINNIDSEDAAFYFCLQHDNFPYTFGQGTKLEIK
# Assays:
# [1] = target: human CD3 epsilon/delta heterodimer, Fc-tagged (human); assay: SPR, 25C antibody-capture
# [2] = target: human CD3 on Jurkat cells (human); assay: FACS
# [3] = target: human CD3 on Jurkat cells (human); assay: FACS; remark: listed apart in the source
# [4] = target: human CD3 epsilon/delta heterodimer, Fc-tagged (human); assay: SPR, 25C antigen-capture
# [5] = target: human CD3 epsilon/delta heterodimer, Fc-tagged (human); assay: SPR, 25C antibody-capture; remark: listed apart in the source
# [6] = target: T1, cynomolgus CD3 on T cells; assay: FACS
# [7] = target: human CD3 epsilon/delta heterodimer, Fc-tagged (human); assay: SPR, 25C antibody-capture; remark: listed apart in the source
# [8] = target: human CD3 on Jurkat cells (human); assay: FACS; remark: listed apart in the source
# [9] = target: T1, cynomolgus CD3 on T cells; assay: FACS
# [10] = target: human CD3 epsilon/delta heterodimer, Fc-tagged (human); assay: SPR, 37C
# [11] = target: human CD3 on Jurkat cells (human); assay: FACS; remark: listed apart in the source
# [12] = target: human CD3 epsilon/delta heterodimer, Fc-tagged (human); assay: SPR, 25C antigen-capture; remark: listed apart in the source
# [13] = target: human CD3 epsilon/delta heterodimer, Fc-tagged (human); assay: SPR, 25C antibody-capture; remark: listed apart in the source
# [14] = target: human PSMA, N-terminal 6xHis (soluble) (human); assay: SPR, 37C
# human PSMA, N-terminal 6xHis (soluble) (human), sequence (A4UU12 whole entry): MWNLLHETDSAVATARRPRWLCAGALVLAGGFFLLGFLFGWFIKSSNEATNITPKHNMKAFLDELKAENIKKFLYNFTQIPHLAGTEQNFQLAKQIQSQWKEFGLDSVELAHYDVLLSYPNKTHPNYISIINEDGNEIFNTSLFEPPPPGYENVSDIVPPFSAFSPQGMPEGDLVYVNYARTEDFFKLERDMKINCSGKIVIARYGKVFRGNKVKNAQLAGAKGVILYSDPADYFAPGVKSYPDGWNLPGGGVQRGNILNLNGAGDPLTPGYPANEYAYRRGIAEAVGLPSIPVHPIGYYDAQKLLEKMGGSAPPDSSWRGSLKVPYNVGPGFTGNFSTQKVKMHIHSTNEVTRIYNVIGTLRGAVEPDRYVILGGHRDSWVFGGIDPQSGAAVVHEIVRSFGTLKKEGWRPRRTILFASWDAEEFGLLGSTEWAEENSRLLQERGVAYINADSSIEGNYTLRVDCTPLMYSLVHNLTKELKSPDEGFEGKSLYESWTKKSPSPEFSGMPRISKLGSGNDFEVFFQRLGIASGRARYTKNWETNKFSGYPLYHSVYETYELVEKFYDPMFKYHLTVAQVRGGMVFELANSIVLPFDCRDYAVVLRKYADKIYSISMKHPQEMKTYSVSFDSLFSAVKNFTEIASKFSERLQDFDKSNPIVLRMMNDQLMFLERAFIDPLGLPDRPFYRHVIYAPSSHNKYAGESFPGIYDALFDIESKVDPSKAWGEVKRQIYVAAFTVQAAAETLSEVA
# human CD3 on Jurkat cells (human), sequence (chain, as listed by the source, chain 1 of 2): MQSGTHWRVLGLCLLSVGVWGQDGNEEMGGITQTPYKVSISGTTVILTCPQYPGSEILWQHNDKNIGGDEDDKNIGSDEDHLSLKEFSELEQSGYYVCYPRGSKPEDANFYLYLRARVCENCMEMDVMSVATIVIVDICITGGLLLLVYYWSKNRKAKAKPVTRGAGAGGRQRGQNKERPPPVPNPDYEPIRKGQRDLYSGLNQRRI
# human CD3 on Jurkat cells (human), sequence (chain, as listed by the source, chain 2 of 2): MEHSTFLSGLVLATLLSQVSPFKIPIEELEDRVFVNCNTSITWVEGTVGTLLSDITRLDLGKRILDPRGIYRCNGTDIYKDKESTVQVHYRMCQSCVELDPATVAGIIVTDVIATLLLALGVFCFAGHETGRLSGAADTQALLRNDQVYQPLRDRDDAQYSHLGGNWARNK
# human CD3 epsilon/delta heterodimer, Fc-tagged (human), sequence (chain, as listed by the source mutant, chain 1 of 2): as the sequence (chain, as listed by the source, chain 1 of 2) above
# human CD3 epsilon/delta heterodimer, Fc-tagged (human), sequence (chain, as listed by the source mutant, chain 2 of 2): as the sequence (chain, as listed by the source, chain 2 of 2) above
binder,measurement,setting,value
B1,binding result,[1],no binding
same,binding result,[2],no binding
B2,EC50,[3],0.296 nM
same,Kd,[4],0.14 nM
same,Kd,[5],13.7 nM
B3,EC50,[6],5.66 nM
B4,binding result,[7],no binding
B5,EC50,[8],1.4 nM
B6,binding result,[9],no binding
same,binding result,[10],no binding
same,binding result,[11],no binding
B7,binding result,[7],no binding
B8,binding result,[9],no binding
same,binding result,[10],no binding
same,binding result,[11],no binding
B9,Kd,[12],10 nM
same,EC50,[8],1.5 nM
same,Kd,[13],220 nM
B10,binding result,[9],no binding
same,binding result,[10],no binding
same,binding result,[11],no binding
B11,binding result,[2],no binding
B12,EC50,[3],1.1 nM
same,Kd,[5],130 nM
B13,binding result,[2],no binding
B14,binding result,[2],no binding
B15,Kd,[14],1.93 nM
B16,Kd,[14],1.76 nM
B17,Kd,[4],0.14 nM
B18,Kd,[12],0.82 nM
B19,Kd,[13],22 nM
B20,Kd,[13],24 nM
B21,Kd,[4],0.0215 nM
B22,EC50,[8],1.5 nM
same,Kd,[13],13 nM
B23,binding result,[1],no binding

# Reference: patent US20210403595 (published 2021)
